# Results from patent US20050032118A1, “Nitrophenyl derivatives that can be activated by light” (priority 1996, published 2005).
# Experiment: Photolysis of nitrobenzyl-BSA conjugates with ultraviolet light (365 nm), residues counted by spectrophotometry
# Conditions: for NBE residues cleaved from the protein / NBE residues cleaved: UV 10 min; for residues removed on irradiation with light: BSA as model protein, 8-15 residues bound, approximately 10 mins
compound,measurement,setting,value
NBE-BSA conjugates: bovine serum albumin randomly coated with NBE residues through nitrobenzyloxycarbonyl chloride,NBE residues cleaved from the protein,3 NBE residues bound per protein molecule (50 mg sample),3 residues
same,NBE residues cleaved,3.5 NBE residues per BSA molecule,2.5 residues
same,NBE residues cleaved,6.9 NBE residues per BSA molecule,6.0 residues
same,NBE residues cleaved,10.8 NBE residues per BSA molecule,10 residues
same,NBE residues cleaved,14.5 NBE residues per BSA molecule,14 residues
same,NBE residues cleaved from the protein,14.8 NBE residues bound per protein molecule (25 mg sample),14 residues
"O=[N+]([O-])c1ccccc1CO [NBA, 2-nitrobenzyl alcohol]",residues removed on irradiation with light,,~65%
"CC(O)Cc1ccccc1[N+](=O)[O-] (centres unmarked) [NBE, 1-(2-nitrobenzyl)ethanol]",residues removed on irradiation with light,,about 95%
